US20210155689A1 (SHANGHAI PHARMAEXPLORER, published 2021)

Tests used:
[1] = target: T1, monkey LAG-3 on cells (HEK293-cLAG-3 stable cell line) (monkey, UniProt P18627 24-525 (human entry)); assay: FACS, HEK293-cLAG-3, antibody 0.320 nM
T1 construct: Full-length monkey (Chinese monkey) LAG-3 gene expressed on HEK293 cells
T1 chain: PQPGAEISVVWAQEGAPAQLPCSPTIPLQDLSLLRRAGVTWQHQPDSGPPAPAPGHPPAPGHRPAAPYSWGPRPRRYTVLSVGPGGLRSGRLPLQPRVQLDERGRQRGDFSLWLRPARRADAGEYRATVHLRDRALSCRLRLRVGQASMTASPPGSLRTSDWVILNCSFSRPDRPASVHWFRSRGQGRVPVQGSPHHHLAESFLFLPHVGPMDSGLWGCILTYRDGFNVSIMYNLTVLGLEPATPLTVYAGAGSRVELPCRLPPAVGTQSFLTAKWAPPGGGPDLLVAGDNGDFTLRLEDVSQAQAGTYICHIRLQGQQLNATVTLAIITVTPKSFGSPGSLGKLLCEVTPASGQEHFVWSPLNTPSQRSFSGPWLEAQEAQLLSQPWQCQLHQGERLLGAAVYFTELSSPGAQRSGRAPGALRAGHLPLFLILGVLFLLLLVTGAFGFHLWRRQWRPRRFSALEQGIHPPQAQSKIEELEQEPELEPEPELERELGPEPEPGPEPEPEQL
Source text: The pIRES plasmid with the monkey-derived full-length gene was transfected into the HEK293 cell line to construct a HEK293 stable cell line containing monkey LAG-3 (herein referred to as HEK293-cLAG-3 stable cell line). The HEK293-hLAG-3 stable cell line and HEK293-cLAG-3 stable cell line were expanded in a T-75 cell culture flask to a 90% confluence. The medium was aspirated, and the cells were washed with HBSS (Hanks' Balanced Salt Solution) 1-2 times, then treated with a enzyme-free cell dissociation fluid (Versene solution: Life technology) and the cells were collected. The cells were washed with HBSS buffer for 1-2 times. After counted, the cells were diluted with HBSS to 1-2×10⁶ cells per ml, added with 1% goat serum blocking solution, incubated on ice for 20-30 minutes, and then washed with HBSS for 2 times by centrifugation. The collected cells were suspended in the FACS buffer (HBSS+1% BSA) to 2×10⁶ cells/ml, added as 100 microliters per well to a 96-well FACS reaction plate, added with 100 microliters per well of the antibody sample to be tested, incubated on ice for 1-2 hours. The plate was washed twice with the FACS buffer by centrifugation, added with 100 microliters of fluorescent (Alexa 488)-labeled secondary antibodies per well, and incubated on ice for 0.5-1.0 hours. The plate was washed 2-3 times with FACS buffer by centrifugation, added with 100 μl fixative solution (4% Paraformaldehyde) per well to suspend the cells. 5-10 minutes later, it was washed 1-2 times with FACS buffer by centrifugation. The cells were suspended with 100 microliters of FACS buffer, FACS (FACSCalibur, BD) was used for detection and the results were analyzed.

[2] = target: T2, LAG-3-hFc protein (human LAG-3 extracellular region with hFc tag) (human, UniProt P18627 23-450); assay: FACS, inhibition of LAG-3-hFc binding to MHC II on Raji cells, antibody 22.222 nM
T2 construct: also called hLAG-3-hFc; LAG-3 protein; not shown: human IgG Fc fragment (hFc) of the pCpC vector
T2 sequence: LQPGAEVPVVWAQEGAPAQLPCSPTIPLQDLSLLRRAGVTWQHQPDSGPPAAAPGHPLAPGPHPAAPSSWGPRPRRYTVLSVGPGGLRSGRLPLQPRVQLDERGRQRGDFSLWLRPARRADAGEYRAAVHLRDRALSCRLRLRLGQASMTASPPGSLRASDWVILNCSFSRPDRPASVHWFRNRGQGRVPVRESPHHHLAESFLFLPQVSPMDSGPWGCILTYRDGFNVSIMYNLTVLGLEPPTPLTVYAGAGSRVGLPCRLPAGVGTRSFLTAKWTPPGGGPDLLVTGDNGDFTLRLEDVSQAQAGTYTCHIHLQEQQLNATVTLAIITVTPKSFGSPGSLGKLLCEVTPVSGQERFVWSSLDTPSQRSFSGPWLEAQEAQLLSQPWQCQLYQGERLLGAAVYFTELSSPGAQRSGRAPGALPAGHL
Protocol: The FACS reaction plate incubating the Raji cells was centrifuged to discard the supernatant. The above mixture was added as 100 μl per well to Raji cells and incubated on ice for 1-2 hours. The plate was washed twice with blocking solution (PBS, 2% fetal bovine serum) by centrifugation, added with 100 microliters of fluorescent (Alexa 488)-labeled secondary antibodies per well, and incubated on ice for 1.0 hours. The plate was washed 2-3 times by centrifugation with blocking solution (PBS, 2% fetal bovine serum), added with 100 microliters of PBS per well to suspend cells, and detected using FACS (FACS Calibur, BD) and the results were analyzed. Wherein, the IgG control was murine IgG, and the data in the table is the inhibition rate (%).

[3] = target: T3, mouse LAG-3 protein with hFc tag (mLAG-3-hFc protein) (mouse; human, UniProt Q61790 24-442); assay: ELISA, mLAG-3-hFc coated; 0.0667 nM
T3 construct: Made in HEK293 cells; also called mouse LAG-3 extracellular domain protein; not shown: human IgG Fc fragment (hFc) of the pCpC vector
T3 sequence: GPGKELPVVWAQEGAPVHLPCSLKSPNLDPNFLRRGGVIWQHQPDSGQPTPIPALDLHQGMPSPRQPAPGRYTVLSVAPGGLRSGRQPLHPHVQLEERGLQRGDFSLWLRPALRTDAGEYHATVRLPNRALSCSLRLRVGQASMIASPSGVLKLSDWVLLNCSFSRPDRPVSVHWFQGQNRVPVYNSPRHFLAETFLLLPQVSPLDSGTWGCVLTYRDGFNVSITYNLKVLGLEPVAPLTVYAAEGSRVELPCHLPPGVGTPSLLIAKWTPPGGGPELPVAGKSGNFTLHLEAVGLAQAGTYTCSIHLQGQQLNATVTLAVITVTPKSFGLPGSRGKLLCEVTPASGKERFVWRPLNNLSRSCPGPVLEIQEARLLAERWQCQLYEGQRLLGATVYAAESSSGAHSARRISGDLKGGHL
Protocol: The plate was sealed with plastic film and incubated overnight at 4° C. The plate was washed 2 times with the plate washing solution (PBS+0.01% Tween20) on the next day, and added with the blocking solution (PBS+0.01% Tween20+1% BSA) and blocked at room temperature for 1-2 hours. The blocking solution was poured out, and the plate was added with 50-100 μl of the antibody sample to be tested to each well, incubated at 37° C. for 1-2 hours, and washed 2-3 times with a plate washing solution (PBS+0.01% Tween20). HRP (horseradish peroxidase) labeled secondary antibody was added, and the plate was incubated at 37° C. for 1-2 hours, and washed 2-3 times with a plate washing solution (PBS+0.01% Tween20). 100 μl of TMB substrate was added to each well. After incubated at room temperature for 15-30 minutes, the plate was added with 100 μl of stop solution (1.0N HCl) to each well.

B1: 105F1E10 mouse-human chimeric antibody (antibody, V domains shown)
VH: EVQLQQSGPELVKPGASVKMSCRASGYTFTDFKMHWMKQSHGKSLEWIGYIAPNNGGTAYNQKFRGKATLTVNESSNTAYMELRSLTSEDSAVYYCVDWDDVDYWGQGTTLTVSS
VL: DIKMTQSPSSMYASLGERVTITCKASQDINSYLSWFQQKSGKSPKTLIYRANRLVDGVPSRFSGSGSGQDYSLTISSLEYEDMGIYYCLQYVEFPLTFGAGTKLELK
notes: also called mAb009-105F1E10
[1]
  Mean fluorescence intensity: 5.72
[2]
  Inhibition rate (%): 95.8%

B2: 105F1E10 (LAG-3 mouse-human chimeric antibody) (antibody, V domains shown)
VH: EVQLQQSGPELVKPGASVKMSCRASGYTFTDFKMHWMKQSHGKSLEWIGYIAPNNGGTAYNQKFRGKATLTVNESSNTAYMELRSLTSEDSAVYYCVDWDDVDYWGQGTTLTVSS
VL: DIKMTQSPSSMYASLGERVTITCKASQDINSYLSWFQQKSGKSPKTLIYRANRLVDGVPSRFSGSGSGQDYSLTISSLEYEDMGIYYCLQYVEFPLTFGAGTKLELK
[3]
  OD450: 0.08 OD450

B3: 405B8H3 (LAG-3 mouse-human chimeric antibody) (antibody, V domains shown)
VH: QVQLQQSGAELVRPGASVTLSCKASGYTFTDYEMHWVKQTPVHGLEWIGATDPETGNSAYNQKFKGKAIMTADKSSSTAYMELRSLTSEDSAVYYCISTGWNDWGQGTSLTVSS
VL: DIKMTQSPSSMYASLGERVTITCKASQDINSYLSWFQQKPGKSPKTLIYRADRLLDGVPSRFSGSGSGQDYSLTISSLEYGDMGIYYCLQYDEFPYTFGGGTKLEIK
notes: also called mouse-human chimeric antibody 405B8H3
[3]
  OD450: 0.08 OD450

B4: 405B8H3 mouse-human chimeric antibody (antibody, V domains shown)
VH: QVQLQQSGAELVRPGASVTLSCKASGYTFTDYEMHWVKQTPVHGLEWIGATDPETGNSAYNQKFKGKAIMTADKSSSTAYMELRSLTSEDSAVYYCISTGWNDWGQGTSLTVSS
VL: DIKMTQSPSSMYASLGERVTITCKASQDINSYLSWFQQKPGKSPKTLIYRADRLLDGVPSRFSGSGSGQDYSLTISSLEYGDMGIYYCLQYDEFPYTFGGGTKLEIK
notes: also called mAb103-405B8H3
[1]
  Mean fluorescence intensity: 10.3
[2]
  Inhibition rate (%): 95.7%

B5: 409B11E12 mouse-human chimeric antibody (antibody, V domains shown)
VH: QVQLQQSGAELVRPGASVTLSCKASGYTFTDYEMHWVKQTTVHGLEWIGATDPETSYSAYNQKFKGKAILTADKSSSTAYMELRSLTSEDSAVYYCIATGWNDWGQGTSLTVSS
VL: DLKMTQSPSSMYASLGERVTITCKASQDINSYLSWFQQKPGKSPKTLIYRANRLLDGVPSRFSGSGSGQDYSLTISSLEYEDMGIYYCLQYDEFPYTFGGGTKLEIK
notes: also called mAb104-409B11E12
[1]
  Mean fluorescence intensity: 11.6
[2]
  Inhibition rate (%): 95.6%

B6: 409D4E10 mouse-human chimeric antibody (antibody, V domains shown)
VH: QVQLQQSGAELVRPGASVTLSCKASGNTFTDYEMHWVKQTPVHGLEWIGATDPETDNTAYNQKFKGKAILTTDKSSSTAYMELRSLTSEDSAVYYCITSGWNDWGQGTSLTVSS
VL: DIKMTQSPSSMYASLGERVTITCKASQDINSYLSWFQQKPGKSPKTLIYRANRLLDGVPSRFSGSGSGQDYSLTISSLEYEDMGIYYCLQYNEFPYTFGGGTKLEIK
notes: also called mAb112-409D4E10
[1]
  Mean fluorescence intensity: 8.96
[2]
  Inhibition rate (%): 95.7%

B7: 409D4E10 (LAG-3 mouse-human chimeric antibody) (antibody, V domains shown)
VH: QVQLQQSGAELVRPGASVTLSCKASGNTFTDYEMHWVKQTPVHGLEWIGATDPETDNTAYNQKFKGKAILTTDKSSSTAYMELRSLTSEDSAVYYCITSGWNDWGQGTSLTVSS
VL: DIKMTQSPSSMYASLGERVTITCKASQDINSYLSWFQQKPGKSPKTLIYRANRLLDGVPSRFSGSGSGQDYSLTISSLEYEDMGIYYCLQYNEFPYTFGGGTKLEIK
[3]
  OD450: 0.13 OD450

B8: 409B11E12 (LAG-3 mouse-human chimeric antibody) (antibody, V domains shown)
VH: QVQLQQSGAELVRPGASVTLSCKASGYTFTDYEMHWVKQTTVHGLEWIGATDPETSYSAYNQKFKGKAILTADKSSSTAYMELRSLTSEDSAVYYCIATGWNDWGQGTSLTVSS
VL: DLKMTQSPSSMYASLGERVTITCKASQDINSYLSWFQQKPGKSPKTLIYRANRLLDGVPSRFSGSGSGQDYSLTISSLEYEDMGIYYCLQYDEFPYTFGGGTKLEIK
[3]
  OD450: 0.09 OD450

B9: 556F6B8 mouse-human chimeric antibody (antibody, V domains shown)
VH: RVQLKQSGPGLVQPSQSLSITCTVSGFSLIKYGVHWVRQSPGEGLEWLGVIWRGGITDYNAAFMSRLSITKDNSKSQVFFKMNSLQADDTAIYYCAKWDGPLAMDYWGQGTSVTVSS
VL: DIVMTQSHKFLSTSVGDRVSITCKASQDVGTTVAWYQQKPGQSPKLLIYWASTRHTGVPDRFTGSGSGTDFTLTISNVQSEDLADYFCQQYSSYPYTFGGGTKLEIK
notes: also called mAb123-556F6B8; 556F8B8
[1]
  Mean fluorescence intensity: 8.37
[2]
  Inhibition rate (%): 95.8%

B10: 556F6B8 (LAG-3 mouse-human chimeric antibody) (antibody, V domains shown)
VH: RVQLKQSGPGLVQPSQSLSITCTVSGFSLIKYGVHWVRQSPGEGLEWLGVIWRGGITDYNAAFMSRLSITKDNSKSQVFFKMNSLQADDTAIYYCAKWDGPLAMDYWGQGTSVTVSS
VL: DIVMTQSHKFLSTSVGDRVSITCKASQDVGTTVAWYQQKPGQSPKLLIYWASTRHTGVPDRFTGSGSGTDFTLTISNVQSEDLADYFCQQYSSYPYTFGGGTKLEIK
notes: also called 556F8B8
[3]
  OD450: 0.11 OD450
